Tests used:
Test in all cases: IEDB peptide-MHC binding, purified MHC/competitive/radioactivity; filed as Kd, often an IC50 or EC50 that approximates it; ≥ and ≤ were set here for values at or beyond the usual limits of such assays
HLA-A*02:01 = conditions: source organism: Vaccinia virus WR
HLA-A*02:02 = conditions: source organism: Vaccinia virus WR
HLA-A*02:03 = conditions: source organism: Vaccinia virus WR
HLA-A*02:06 = conditions: source organism: Vaccinia virus WR
HLA-A*03:01 = conditions: source organism: Vaccinia virus WR
HLA-A*11:01 = conditions: source organism: Vaccinia virus WR
HLA-A*31:01 = conditions: source organism: Vaccinia virus WR
HLA-A*33:01 = conditions: source organism: Vaccinia virus WR
HLA-A*68:01 = conditions: source organism: Vaccinia virus WR
HLA-A*68:02 = conditions: source organism: Vaccinia virus WR
HLA-B*07:02 = conditions: source organism: Vaccinia virus WR
HLA-B*35:01 = conditions: source organism: Vaccinia virus WR
HLA-B*51:01 = conditions: source organism: Vaccinia virus WR
HLA-B*53:01 = conditions: source organism: Vaccinia virus WR
HLA-B*54:01 = conditions: source organism: Vaccinia virus WR
HLA-A*24:02 = target: HLA-A*24:02
HLA-A*01:01 = target: HLA-A*01:01
HLA-A*23:01 = target: HLA-A*23:01
HLA-A*26:01 = target: HLA-A*26:01
HLA-A*29:02 = target: HLA-A*29:02
HLA-A*30:02 = target: HLA-A*30:02
HLA-A*30:01 = target: HLA-A*30:01
HLA-A*32:01 = target: HLA-A*32:01
HLA-B*44:03 = conditions: source organism: Dengue virus 1 Brazil/97-11/1997
[1] = source organism: Mammarenavirus whitewaterense
[2] = source organism: Dengue virus 1 Brazil/97-11/1997
[3] = source organism: Mammarenavirus brazilense
[4] = source organism: SARS coronavirus Tor2
[5] = source organism: Mammarenavirus guanaritoense
[6] = source organism: Dengue virus 4 Philippines/H241/1956
[7] = source organism: Mammarenavirus lassaense
[8] = source organism: Mammarenavirus juninense
[9] = source organism: Dengue virus 2 Jamaica/1409/1983

ATLMKTSCSK
Kd (HLA-A*02:01): ≥ 69.4 µM
Kd (HLA-A*02:02): ≥ 70 µM
Kd (HLA-A*02:03): ≥ 70.4 µM
Kd (HLA-A*02:06): ≥ 69.8 µM
Kd (HLA-A*03:01): 0.0336 µM
Kd (HLA-A*11:01): 0.0199 µM
Kd (HLA-A*31:01): 0.411 µM
Kd (HLA-A*33:01): ≥ 70 µM
Kd (HLA-A*68:01): 4.95 µM
Kd (HLA-A*68:02): ≥ 69.8 µM
Kd (HLA-B*07:02): ≥ 21.6 µM
Kd (HLA-B*35:01): ≥ 69.9 µM
Kd (HLA-B*51:01): ≥ 69.6 µM
Kd (HLA-B*53:01): ≥ 69.9 µM
Kd (HLA-B*54:01): ≥ 69.9 µM

AYAQMWSLM
Kd (HLA-A*24:02; source organism: Dengue virus 3 Martinique/1243/1999): 0.0121 µM

CSYKIGHHV
Kd (HLA-A*01:01; [1]): 0.0591 µM
Kd (HLA-A*23:01; [1]): 17.5 µM
Kd (HLA-A*24:02; [1]): ≥ 29.2 µM
Kd (HLA-A*26:01; [1]): ≥ 64.5 µM
Kd (HLA-A*29:02; [1]): ≥ 26.3 µM
Kd (HLA-A*30:02; [1]): 0.0944 µM

CWCNATDTW
Kd (HLA-A*23:01; [2]): 0.711 µM

DTGNYILCY
Kd (HLA-A*01:01; [3]): 0.273 µM
Kd (HLA-A*26:01; [3]): 5.73 µM
Kd (HLA-A*29:02; [3]): 1.41 µM
Kd (HLA-A*30:01; [3]): 2.44 µM
Kd (HLA-A*30:02; [3]): 18 µM
Kd (HLA-A*32:01; [3]): ≥ 24.8 µM

ELINIPYCNY
Kd (HLA-A*01:01; [1]): 15.8 µM
Kd (HLA-A*26:01; [1]): 0.227 µM
Kd (HLA-A*29:02; [1]): 1.81 µM
Kd (HLA-A*30:01; [1]): ≥ 70.4 µM
Kd (HLA-A*30:02; [1]): 0.0888 µM
Kd (HLA-A*32:01; [1]): ≥ 28.3 µM

FFASFYYIW
Kd (HLA-A*01:01; [4]): ≥ 37.6 µM
Kd (HLA-A*23:01; [4]): 0.176 µM
Kd (HLA-A*24:02; [4]): 0.0209 µM
Kd (HLA-A*26:01; [4]): ≥ 26.2 µM
Kd (HLA-A*29:02; [4]): 0.0945 µM
Kd (HLA-A*30:02; [4]): ≥ 67.1 µM

FYSEESPTEY
Kd (HLA-A*01:01; [5]): 0.192 µM
Kd (HLA-A*26:01; [5]): 7.36 µM
Kd (HLA-A*29:02; [5]): 0.0801 µM
Kd (HLA-A*30:01; [5]): ≥ 48.7 µM
Kd (HLA-A*30:02; [5]): ≥ 27 µM
Kd (HLA-A*32:01; [5]): ≥ 69.9 µM

GARVIWMDAY
Kd (HLA-A*03:01): 1.02 µM
Kd (HLA-A*11:01): 5.51 µM
Kd (HLA-A*29:02; source organism: Vaccinia virus WR): ≥ 55.6 µM
Kd (HLA-A*31:01): 0.22 µM
Kd (HLA-A*33:01): 0.505 µM
Kd (HLA-A*68:01): 0.978 µM

GWKNWQEVPF
Kd (HLA-A*23:01; [6]): 0.43 µM
Kd (HLA-A*24:02; [6]): 0.19 µM

GYKETPFLTI
Kd (HLA-A*23:01; [3]): 0.139 µM
Kd (HLA-A*24:02; [3]): 0.159 µM
Kd (HLA-A*29:02; [3]): 0.108 µM

HDLMMGYAWI
Kd (HLA-A*01:01; [7]): ≥ 51 µM
Kd (HLA-A*23:01; [7]): 8.22 µM
Kd (HLA-A*24:02; [7]): ≥ 40.1 µM
Kd (HLA-A*26:01; [7]): ≥ 69.7 µM
Kd (HLA-A*29:02; [7]): ≥ 63.9 µM
Kd (HLA-A*30:02; [7]): 19.2 µM

IAMGYVVSSF
Kd (HLA-A*01:01; [8]): 5.14 µM
Kd (HLA-A*26:01; [8]): 0.53 µM
Kd (HLA-A*29:02; [8]): 1.49 µM
Kd (HLA-A*30:01; [8]): 9.1 µM
Kd (HLA-A*30:02; [8]): 0.22 µM
Kd (HLA-A*32:01; [8]): 0.996 µM

IGAGICASY
Kd (HLA-A*01:01; [4]): ≥ 47.8 µM
Kd (HLA-A*23:01; [4]): ≥ 77.8 µM
Kd (HLA-A*24:02; [4]): ≥ 60 µM
Kd (HLA-A*26:01; [4]): 6.65 µM
Kd (HLA-A*29:02; [4]): 0.0199 µM
Kd (HLA-A*30:02; [4]): 0.00118 µM

KTSVDCNMY
Kd (HLA-A*01:01; [4]): 0.0986 µM
Kd (HLA-A*23:01; [4]): ≥ 77.8 µM
Kd (HLA-A*24:02; [4]): ≥ 77.6 µM
Kd (HLA-A*26:01; [4]): ≥ 81.5 µM
Kd (HLA-A*29:02; [4]): 2.72 µM
Kd (HLA-A*30:02; [4]): 0.00266 µM

LFTKFFYLL
Kd (HLA-A*01:01; [4]): ≥ 78.1 µM
Kd (HLA-A*23:01; [4]): 0.154 µM
Kd (HLA-A*24:02; [4]): 0.11 µM
Kd (HLA-A*26:01; [4]): ≥ 38.1 µM
Kd (HLA-A*29:02; [4]): 6.96 µM
Kd (HLA-A*30:02; [4]): ≥ 83.3 µM

LLFASMGFK
Kd (HLA-A*02:01): 4.83 µM
Kd (HLA-A*02:02): 0.294 µM
Kd (HLA-A*02:03): 0.183 µM
Kd (HLA-A*02:06): 16.7 µM
Kd (HLA-A*03:01): 0.000874 µM
Kd (HLA-A*11:01): 0.00171 µM
Kd (HLA-A*31:01): 0.0556 µM
Kd (HLA-A*33:01): 2.94 µM
Kd (HLA-A*68:01): 0.0126 µM
Kd (HLA-A*68:02): ≥ 36.3 µM
Kd (HLA-B*07:02): ≥ 77.5 µM
Kd (HLA-B*35:01): ≥ 41.6 µM
Kd (HLA-B*51:01): ≥ 77.5 µM
Kd (HLA-B*53:01): ≥ 78.2 µM
Kd (HLA-B*54:01): ≥ 78.1 µM

LSEMLNKEY
Kd (HLA-A*01:01; [3]): 0.00525 µM
Kd (HLA-A*26:01; [3]): ≥ 77.9 µM
Kd (HLA-A*29:02; [3]): 5.72 µM
Kd (HLA-A*30:01; [3]): 9.77 µM
Kd (HLA-A*30:02; [3]): 14.7 µM
Kd (HLA-A*32:01; [3]): ≥ 77.8 µM

LTGHMLDMY
Kd (HLA-A*01:01; [4]): 0.000563 µM
Kd (HLA-A*23:01; [4]): ≥ 77.8 µM
Kd (HLA-A*24:02; [4]): ≥ 77.6 µM
Kd (HLA-A*26:01; [4]): 10.5 µM
Kd (HLA-A*29:02; [4]): 0.0611 µM
Kd (HLA-A*30:02; [4]): 0.0728 µM

MWHVTRGSVI
Kd (HLA-A*23:01; [6]): 1.08 µM
Kd (HLA-A*24:02; [6]): 1.28 µM

PYMPTVIEEL
Kd (HLA-A*24:02; [6]): 0.211 µM

QYVYMGQPL
Kd (HLA-A*24:02; [2]): 4.52 µM

RPDTRHLRVL
Kd (HLA-A*02:01): ≥ 69.4 µM
Kd (HLA-A*02:02): ≥ 70 µM
Kd (HLA-A*02:03): ≥ 70.4 µM
Kd (HLA-A*02:06): ≥ 69.8 µM
Kd (HLA-A*03:01): ≥ 70.1 µM
Kd (HLA-A*11:01): ≥ 69.8 µM
Kd (HLA-A*31:01): ≥ 70 µM
Kd (HLA-A*33:01): ≥ 70 µM
Kd (HLA-A*68:01): ≥ 70.2 µM
Kd (HLA-A*68:02): ≥ 69.8 µM
Kd (HLA-B*07:02): 0.0117 µM
Kd (HLA-B*35:01): ≥ 69.9 µM
Kd (HLA-B*51:01): ≥ 69.6 µM
Kd (HLA-B*53:01): ≥ 69.9 µM
Kd (HLA-B*54:01): ≥ 69.9 µM

SFIEVKSCHW
Kd (HLA-A*23:01; [9]): 0.461 µM

SFIEVKTCIW
Kd (HLA-A*23:01; [2]): 0.0173 µM
Kd (HLA-B*44:03): 1.26 µM

TYGLNTFTNM
Kd (HLA-A*23:01; [9]): 4.92 µM

VTLITGNMSF
Kd (HLA-A*24:02; [9]): 11.5 µM

VTNLISETLK
Kd (HLA-A*02:01): ≥ 69.4 µM
Kd (HLA-A*02:02): ≥ 70 µM
Kd (HLA-A*02:03): ≥ 70.4 µM
Kd (HLA-A*02:06): 17.3 µM
Kd (HLA-A*03:01): 0.409 µM
Kd (HLA-A*11:01): 0.00847 µM
Kd (HLA-A*31:01): 3.27 µM
Kd (HLA-A*33:01): ≥ 34.2 µM
Kd (HLA-A*68:01): 0.0944 µM
Kd (HLA-A*68:02): ≥ 34.9 µM
Kd (HLA-B*07:02): ≥ 69.6 µM
Kd (HLA-B*35:01): ≥ 69.9 µM
Kd (HLA-B*51:01): ≥ 69.6 µM
Kd (HLA-B*53:01): ≥ 69.9 µM
Kd (HLA-B*54:01): ≥ 69.9 µM

Reference: the Immune Epitope Database (IEDB)
